{"source": "patent US20030228675", "key": {"[1]": {"test_system": "GST-p53 1-70 (GST fusion protein containing the first 70 amino acids of p53)"}, "[2]": {"biological_target": "GST-hUpf1 1019-1118 (GST fusion protein containing the carboxyl-terminal region of hUpf1, amino acids 1019-1118) (UniProt Q92900)"}}}
{"substance": "HA-ATMWT (HA-tagged wild-type ATM)", "values": [{"measurement": "specific kinase activity in immune complex kinase assay", "setting": "[1]", "value": "the specific kinase activity of HA-ATXWT towards GST-p531-70 was significantly higher than that of HA-ATM"}, {"measurement": "phosphorylation in immune complex kinase assay", "setting": "[2]", "value": "this substrate was phosphorylated by both ATM and ATX, with the latter protein kinase showing the higher specific catalytic activity"}]}
{"substance": "HA-ATXWT (HA-tagged wild-type long ATX)", "values": [{"measurement": "phosphorylation in immune complex kinase assay, compared with GST-hUpf1 1019-1118", "setting": "[1]", "value": "GST-p531-70 was more avidly phosphorylated by ATX than was the GST-hUpf11019-1118 substrate"}, {"measurement": "specific kinase activity (ratio of 32P incorporation into substrate to level of HA-tagged protein kinase), relative to ATMWT", "setting": "[1]", "value": "the specific kinase activity of ATXWT was approximately 3.5-fold higher than that of ATMWT"}, {"measurement": "phosphorylation in immune complex kinase assay", "setting": "[2]", "value": "this substrate was phosphorylated by both ATM and ATX, with the latter protein kinase showing the higher specific catalytic activity"}, {"measurement": "phosphorylation in immune complex kinase assay", "setting": "GST-p53 1-70 (S15A)", "value": "phosphorylation of GST-p531-70 by ATXWT was nearly abolished by substitution of the Ser-15 residue in p53 with Ala"}]}
